From the DeepSol protein solubility set come the findings set out here.

The nature of this data set: soluble on expression in E. coli; label from the status in PepcDB or PDB records.
For “SLRKLRFTRSPYTSARLGQPVDASLLLCNGGRRRFRGQVRDAWPPSARAQPHTHDVDVAAGQRQQVHTALRPVRRGDQRAAMVTARSIGPLGLAGRQSSQSVPGLVRVLPPFLSRKHLPSRLAKLREIDGLLPTLIRGQGTEFDSLREYVVGDDVRSIDWRASARRADVMVRTWRPERDRRVVIVLDTGRMAAGRVGVDPTAADPAGWPRLDWSMDAALLLAALASRAGDHVDFLAHDRISRAGVFGASRSELLAQLVDAMAPLRPALIESDWHAMIATILRRTRRRSLVVLLTDLNATALDEGLLPVLPQLSARHHVLVAAVADPRVDQLAAGRSDAAAVYDAAAAERARNDRRAIASQLRRGGVDVIDAPPAEIAPGLADRYLAMKATGRL”, the “soluble on expression in E. coli” value is given as “not soluble”.
With “MGSITENTSWNKEFSAEAVNGVFVLCKSSSKSCATNDLARASKEYLPASTFKIPNAIIGLETGVIKNEHQVFKWDGKPRAMKQWERDLTLRGAIQVSAVPVFQQIAREVGEVRMQKYLKKFSYGNQNISGGIDKFALEGQLRISAVNQVEFLESLYLNKLSASKENQLIVKEALVTEAAPEYLVHSKTGFSGVGTESNPGVAWWVGWVEKETEVYFFAFNMDIDNESKLPLRKSIPTKIMESEGIIGG” the entry was “soluble”; with “MGSDKIHHHHHHMDAIARELRTSRSTVSRLLSAARETGLVQIQIRNPLDTGPELENMIRTQYRVDVHVVPVLDTLNEAETLDRVAMQAARTIGPLVDSNAIIGVAWGSTLSAVSRHLTRKITHDSVIVQLNGAGNMQTTGITYASDIMRRFGSAYGARVEQFPVPAFFDHAATKTAMWNERSVQRILELQSRMSIAIFGVGSVDADYPSHVYAGGYLDEDDLNILANSDVVGDVATVFFRGDGSSDGITLNERSTGPALAQLRQVRRRICVVSGASKINGLRGALAAGLATDLILDEATARRLVSFDGLS”, “not soluble”; with “MKIVLIGAGNVATHLGIALQKAGCLILQVYSRTEESASALAARLSVDYTIVPDEIRRDADLYIVALKDAVLRQLAPVLVKGREQALFVHTAGSMSMDLWKGLVKRYGVLYPMQTFSKQREVDFNTVPFFIEASAPAEVELLRMVAVRLSPKVYEVTSGQRRYLHLAAVFACNFANHMYALSSHILEKQGIPFEVMLPLIDETAGKVHELSPTQAQTGPAVRYDENVISKHLEMLADEESLQELYEKISKSIHNLPLSVIQANKEGKNS”, “not soluble”.
With “MYKINDFEIMAPVGSRESLAAAIQAGADSIYFGIENLNMRARSANTFTIEDLREIARTCDEHGMKSYLTVNTIIYDKDIELMRTIVDAAKEAGISAVIAADVAVMSYANKIGQEVHLSTQLNISNAEALKFYAQFADVVVLARELNLEQVAEIYRQIQEEHICGPSGELIRIEMFCHGALCMAVSGKCYLSLHEMNHSANRGACMQICRRAYTVRDKDTDVELEVDNQYIMSPKDLKTIHFMNKMIDAGVRVFKIEGRARGPEYVRTVVECYKQAIRAYLDDSFTDEKIAAWDERLKTVFNRGFWDGYYLGQRLGEWTKNYGSAATERKIYVGKGIKYFSNIGVAEFLVEAAEVSVGDKLLITGPTTGAVFATLDEARVDLKPVETVKKGEHFSMKLDKIRPSDKLYKLVSTEELKKFKGL” the entry was “not soluble”; with “AIAAMGRTTQFTLDEVAKHADKDSCWLVIDGKVYAVEKFLNEHPGGEDVLLETAGRDATREFEDVGHSKSAREQLKEFYIGDVREPTAEELAAKRAVQASAAAERRDGDGVRANGLGKERLFAGGAFGAEPLSGGSSTWTLLKRLFVPVCIAVLVYLVREYSKQVQTGG”, “soluble”.
In the case of “MGSDKIHHHHHHMSTPPVDVCYKVNAPLSSQQFVELLAKTSLGPRRPLDDETAITGMLKHANLLVSAWQGETLVGIARSVTDFHFCCYLSDLAVSDDFQHAGIGKKLIQQTAQQLGKGCKIILLAAPLAVDYYPKLGFEKHNSAWLMAASDLHSEA” it was “not soluble”; in that of “GSHMKETKKAGPIELPEELEAQRQRHNDPRRPPWPLLHQRVVLLREGKGAPEDIALMWEQTKHYYPADWLIPLELTQVLKYSSGKYLQTYVADPDEMRKEVLMQLLNVKYGRVSDPNGGRVNKDVEEIISMAVDDLENMDLNPAADAVLIPTHT”, “soluble”; in that of “MGHHHHHHSHMANSAGSMANSAGSMAKTIKDIKAMVEQAAIQSIHKSSSNVKQIMVKTGQEHIVEDVYGAYDPLLYERTGQVKDAFITTNESNGVSLDNIREDDGKDIATVIETGQGYTYPDSYGYGYGNPRPFMKNTSETLRDGRLTAALKKDLKADGIKTD”, “not soluble”.
Take “MRILLIHSDYIEYEVKDKAIKNPEPISEEEKKGRMDEVLVAFISVEKVDETNPEEVVSKAVEEIINVASQVKAENVFVYPFAHLSSELAKPSVAQEILRKVYEGLKEKGYNVGKAPFGYYKAFKISCKGHPLAELSRTIIPEGAKEEEVPEALKKEETELVSYWYILTPEGELIEVDKFDFTGYENLRKFANYEISKSRIAEKEPPHVKLMLEHELVDYEPGSDPGNLRYYPKGRLIKSLLEQYVTEKVIEYGAMEVETPVMYDFEHPALEKYLNRFPARQYIVLSGDKKYFLRFAACFGQFLISKDAVISYRHLPLRMYELTRYSFRREKRGELSGLRRLRAFTMPDMHTLAKDLEQAKDEFKKQFKLSMEVLKGVGLTPEDYEVAIRFTEDFWKENRDFIVELVKIIGKPVLIEMWKQRFFYFILKFEFNFVDNLDKAAALSTVQIDVENAERFGIKYYDENGEEKYPLILHCSPSGAIERVMYAILEKQAKLMQEGKKPMLPLWLSPIQVRVIPVSEEYLDYALYIAGKLEGARIRVDVDDEDERLNKKIRRAEKEWIPYIVVVGAKEKESGTITVRRREDGKQYETRLEELIKEIKEKVEGFPYKPRPLPLLLSKRPKFRG”: the “soluble on expression in E. coli” value was “soluble”.
Consider “MTTARPAKARNEGQWALGHREPLNANEELKKAGNPLDVRERIENIYAKQGFDSIDKTDLRGRFRWWGLYTQREQGYDGTWTGDDNIDKLEAKYFMMRVRCDGGALSAAALRTLGQISTEFARDTADISDRQNVQYHWIEVENVPEIWRRLDDVGLQTTEACGDCPRVVLGSPLAGESLDEVLDPTWAIEEIVRRYIGKPDFADLPRKYKTAISGLQDVAHEINDVAFIGVNHPEHGPGLDLWVGGGLSTNPMLAQRVGAWVPLGEVPEVWAAVTSVFRDYGYRRLRAKARLKFLIKDWGIAKFREVLETEYLKRPLIDGPAPEPVKHPIDHVGVQRLKNGLNAVGVAPIAGRVSGTILTAVADLMARAGSDRIRFTPYQKLVILDIPDALLDDLIAGLDALGLQSRPSHWRRNLMACSGIEFCKLSFAETRVRAQHLVPELERRLEDINSQLDVPITVNINGCPNSCARIQIADIGFKGQMIDDGHGGSVEGFQVHLGGHLGLDAGFGRKLRQHKVTSDELGDYIDRVVRNFVKHRSEGERFAQWVIRAEEDDLR”, for which the “soluble on expression in E. coli” value is recorded as “soluble”.
In the case of “MTRLPKLAVFDLDYTLWPFWVDTHVDPPFHKSSDGTVRDRRGQNIQLYPEVPEVLGRLQSLGVPVAAASRTSEIQGANQLLELFDLGKYFIQREIYPGSKVTHFERLHHKTGVPFSQMVFFDDENRNIIDVGRLGVTCIHIRDGMSLQTLTQGLETFAKAQAGL” it was “soluble”; in that of “MGSDKIHHHHHHMCPMQNYPYVITVSSEKGGVGKTTLATNLAIYLKALDENLPVTIFSFDNHFTVDRMFEIRGQRLTGSVADLLMESPPRDLIHTGQYGVGYIPSSASLNDLKGSIRGPMVLARLLAASRIPGVLIIDTRPDLDMLTQNALFAADRAIIPVKDMPSLENCRNIFALFEQRGLDRKSLSLIPCLVDERIKFDGPFNDQKTLLKAYAINRGYRCLDVYISKSPKVESLNTNPDGKIYPILTHAKWTEVHGQFAQLAQILINEYNATTEPRSLLFHKWLQTEESRKKEEFFARLSGIKSQCLLCGKPVSDDGDGRHSFYFEVSDGSAAGFFEEECFLTMLMTNIYNMDVSMVDDAPTVHLMRDSSRESAFVFRPASNGGAVEFHRFSLDGTLLIKKNYPLREYEGGLLRRERSRLYTLMTEALGTAGAGSSDRFILVHPVTRDNPQGILRDESYRGLTKLKQHIAAQIASS”, “not soluble”; in that of “MSLKILFASSESYPFIKTGGLGDVSYALPKALRKIGIDARVIIPKYSDIPEYFRYNTHHIASFGVPVGWRSQYGGLEYYEYDGVPFYFIDNDYYFKRSGLYGYYDDGERFAYFSRGVLQAITYMQDFNPDIIQCNDWQTAIIPVLLKDHYRNYRNYNHIKTIFTIHNLKYQGVFGKSVLGELLCLNEGYYNENALKFYDGISFMKGGILFSDKLSTVSRTYAEEIKDPYYGEHLDGLLRSRSYDLWGIVNGIDYDILNPETDKDLFFNFDSSTLYNKTKNKIELQKMLNLPVSENIPMIGIVSRLVSQKGLDLISCVLEDLLQDGIQLVVLGTGDAKYENMFKYFAWKYPNKLSANIQFNNSLAQKIYGASDMFLMPSKFEPCGIGQLIALRYGSLPIVRETGGLKDTVRPFNPITGEGNGFSFTNYNAHDMLHVIRNAEYFYYNEKYNWNKLVQTAMNDDNSWSKSAEIYRNLYMSVLEGHHHHHH”, “not soluble”.
With “MGSDKIHHHHHHMEKNYYLTKTEQRIFNVIKHAKIITVREVAELFPELSRNMICKALSSLEKKGYLYRIKNGLYLIQQAPTKGSIIIEDPYRIALAMFSGYIAFSSALRLYNLIEYEPFTVFVATPRKSKKVEIDNYIIQAVALGEKATGITLYNGVYTSTLAKTFFDCFYKPQYCGGYETITKALYEAESIDWKEFLDYFKRFASPSLFQRTGYILELMNKELNFKIPKEVLEFFRSKVETKTKLVPTSPSRGKFIKEWKLLDNLGKDKILGWAYGY” the entry was “not soluble”; with “MGSDKIHHHHHHMIEVQKQIDLDLELDIYKKLLEDNILFFDIETTGFDKEKEKVVLISGGWFLQDKKFVIKQYFAESLDEEVQVLKAFKEDVTKFNSWCSYNGKAFDEPFIKKRMNINNIEFTPPREHIDLYRIIRPYYKQLGMERCNLKSVEKYLGIHRADKIDGGISVELYYNFLDTKDERLRYVIMLHNYEDVLNLPSIFKLTYDIEKNDTLKREGGITKKQLDYLRFLMKKNNIQVTDDLKKISKKSASRIIDSILRGNIDIDKFNAIIKDSY”, “not soluble”; with “MSNSNKLIAEKNGSRYGRMIHPWLRKKQDMLADTPSRREGMTYEEELSKRQQGGVFIFDIAMQLTHGKGEHGLSGVAATLFNRFFNVHSLKRCDFRDVAAACVFLAGKNEDAPKKLKYVVTQLWQFKYPHNKQFQSEQHFLDQCNVVTLIEDVLLKTISFDINVDLPHQYVLKLMRDVEKGRNVYKDMVKTAYYMATDVLIITDWSVRYSCASIATACVNIAAFFHNINMDDIVPFELSDRWYRLEDQSMTREEVEAMTKEFLDIFSRNPQFHIGSLKKIDPLGKVKIVGMPPQVSSTVTPSGSSSNLKKIDLESYKGRPKPLSNSSDSPSTRPSFLPDVKNQKVVEQELMEQRMKEAAQQKIHRNGHRPSSSSHPLHHHSTSSSASNNSNHQNRSSSGLSAHQHQKPYNEDSRSAKRSMMYEETNSSKKPRIDYKMSFVASSSTTIATMHNDHFSQTTHQQNISTYARGVNEMMLNQVAPPPLMSVSAQPSTYQKMCMEYQRNPADSRHTMSSTQQISPPDEPSPPVSQILLPPPPPPPILPPRLDEMEEGELV”, “not soluble”.
In the case of “MEFNKLQLSHCISFYISDVSEVFFESINQHPSRDFVNNILQKIKSTLSEEELEKLNTIEEVTKDEKILIMLNHVLKKIVSKTGSSSCDLFQIVKHDRFNEPVYIQSVNAFENNLINNEFAERRYDYLIEINKHSYLRKYVNAIRISFFLDLRAQILSGSFTLDVINKQLEHQNKEELFQAIYLRSLIKHFISNQLYPISLNSFIFGDKNRENKTVENDKLSVLKNNWNQIFFSKYFDFVAKNKEERVVDNNCD” it was “not soluble”.
